Test results from the Immune Epitope Database (IEDB).

How the values were obtained:
Details in all cases: source organism: Cryptosporidium parvum Iowa II
HLA-A*68:02 = assay: IEDB peptide-MHC binding, purified MHC/direct/fluorescence; filed as Kd, often an IC50 or EC50 that approximates it; ≥ and ≤ were set here for values at or beyond the usual limits of such assays
HLA-B*46:01 = assay: as above
HLA-A*24:03 = assay: as above
HLA-B*39:01 = assay: as above
HLA-A*26:01 = assay: as above
HLA-A*02:03 = assay: as above
HLA-A*02:16 = assay: as above
HLA-B*15:01 = assay: as above
HLA-A*23:01 = assay: as above
HLA-B*18:01 = assay: as above
HLA-A*02:19 = assay: as above
HLA-B*15:17 = assay: as above
HLA-B*57:01 = assay: as above
HLA-A*29:02 = assay: as above
HLA-A*03:01 = assay: as above
HLA-A*02:01 = assay: as above
HLA-A*02:12 = assay: as above
HLA-B*27:03 = assay: as above
HLA-B*14:02 = assay: IEDB peptide-MHC binding, purified MHC/competitive/fluorescence; filed as Kd, often an IC50 or EC50 that approximates it; ≥ and ≤ were set here for values at or beyond the usual limits of such assays
HLA-A*30:02 = assay: as above
HLA-B*51:01 = assay: as above
HLA-B*07:02 = assay: as above
HLA-B*44:02 = assay: as above
HLA-A*66:01 = assay: as above
HLA-B*58:01 = assay: as above

In the case of TVFRNQNRV, the Kd (HLA-A*68:02) is reported as ≤ 0.001 µM, the Kd (HLA-B*46:01) is reported as ≥ 20 µM and the Kd (HLA-A*24:03) is reported as ≥ 20 µM. The Kd (HLA-B*39:01) was ≥ 20 µM, the Kd (HLA-A*26:01) was ≥ 20 µM and the Kd (HLA-A*02:03) was ≥ 20 µM. For the same sequence, the Kd (HLA-A*02:16) was ≥ 20 µM, the Kd (HLA-B*15:01) was ≥ 20 µM and the Kd (HLA-A*23:01) was ≥ 20 µM. For the same sequence, the Kd (HLA-B*18:01) was ≥ 20 µM, the Kd (HLA-A*02:19) was ≥ 20 µM and the Kd (HLA-B*15:17) was ≥ 20 µM. For the same sequence, the Kd (HLA-B*57:01) was ≥ 20 µM, the Kd (HLA-A*29:02) was ≥ 20 µM and the Kd (HLA-A*03:01) was ≥ 20 µM. The Kd (HLA-A*02:01) was ≥ 20 µM, the Kd (HLA-A*02:12) was ≥ 20 µM and the Kd (HLA-B*27:03) was ≥ 20 µM. The Kd (HLA-B*14:02) was ≥ 5 µM, the Kd (HLA-A*30:02) was ≥ 5 µM and the Kd (HLA-B*51:01) was ≥ 5 µM. For the same sequence, the Kd (HLA-B*07:02) was ≥ 5 µM, the Kd (HLA-B*44:02) was ≥ 5 µM and the Kd (HLA-A*66:01) was ≥ 5 µM. The Kd (HLA-B*58:01) was ≥ 5 µM.
